Reference: patent US20250388667A1 (BIO THERA SOLUTIONS, published 2025)

Assays:
[1] = biological target: T1, hNectin-1 (ACRO, PV1-H5223) (human, UniProt Q15223 31-334); assay: ELISA, antigen coated, HRP-labeled anti-human-Kappa secondary antibody
T1 construct: bought
T1 sequence (looked up): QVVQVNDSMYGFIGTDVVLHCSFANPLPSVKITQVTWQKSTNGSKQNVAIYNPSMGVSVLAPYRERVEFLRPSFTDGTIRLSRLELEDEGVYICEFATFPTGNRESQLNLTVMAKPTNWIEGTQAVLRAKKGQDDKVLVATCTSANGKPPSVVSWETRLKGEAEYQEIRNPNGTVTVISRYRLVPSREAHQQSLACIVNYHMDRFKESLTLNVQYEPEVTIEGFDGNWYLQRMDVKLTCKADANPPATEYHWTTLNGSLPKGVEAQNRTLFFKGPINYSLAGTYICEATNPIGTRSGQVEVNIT
Protocol: (§1) The binding activity of intact antibodies was detected by ELISA. The procedures are briefly described as follows: the hNectin-4-His antigen protein of Example 1 was immobilized at a concentration of 1 μg/mL on a plate; the plate was blocked with skimmed milk powder overnight, and then, serially diluted antibodies of interest were added for co-incubation (antibodies in Table 9 were serially 2-fold diluted from 2 μg/mL; antibodies in Tables 10 and 11 were serially 3-fold diluted from 10 μg/mL) at room temperature for 2 h; then an HRP-labeled anti-human-kappa (Sigma, A7164) secondary antibody was added for co-incubation for 1 h, followed by the addition of TMB (Huzhou InnoReagents, TMB-S-001) for chromogenic reaction, and the reaction was stopped with 0.1 M H₂SO₄; after the absorbance at OD450 was read on a microplate reader, the binding EC₅₀ value for each antibody was calculated by four-parameter fitting, and the binding activities of the antibodies were compared.
(§2) In this assay, the binding of different antibodies to human Nectin-4 homologous proteins hNectin-1 (ACRO, PV1-H5223), hNectin-2 (ACRO, PV2-H52E2), hNectin-3 (ACRO, PV3-H52E4), and hNectin-4-His was detected by ELISA to determine the specificity of the antibodies. For the methodology and procedures, see Example 4. Antigens of interest ([…]) were immobilized; after blocking, serially diluted antibodies (2-fold serially diluted from […]) were added, and HRP-labeled anti-human-Kappa secondary antibody was added for chromogenic reaction.

[2] = biological target: T2, hNectin-2 (ACRO, PV2-H52E2) (human, UniProt Q92692 32-360); assay: as above
T2 construct: bought
T2 sequence (looked up): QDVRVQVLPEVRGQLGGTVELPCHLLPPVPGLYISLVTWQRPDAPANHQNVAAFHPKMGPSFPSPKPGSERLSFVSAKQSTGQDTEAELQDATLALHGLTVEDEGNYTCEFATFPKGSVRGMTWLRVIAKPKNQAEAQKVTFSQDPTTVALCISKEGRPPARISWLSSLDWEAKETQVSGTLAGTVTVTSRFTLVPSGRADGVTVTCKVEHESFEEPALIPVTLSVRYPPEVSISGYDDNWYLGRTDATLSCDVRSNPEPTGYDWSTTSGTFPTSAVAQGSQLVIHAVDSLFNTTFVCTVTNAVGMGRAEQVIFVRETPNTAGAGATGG
Protocol: as §1, §2

[3] = biological target: T3, Nectin-4 on T-47D cells (human, UniProt Q96NY8 32-510); assay: FACS on T-47D cells, 10 µg/mL on ice, 0 h point of the endocytosis assay
T3 construct: whole, on cells; endogenous expression; also called T-47D cells positive for Nectin-4 expression
T3 sequence (looked up): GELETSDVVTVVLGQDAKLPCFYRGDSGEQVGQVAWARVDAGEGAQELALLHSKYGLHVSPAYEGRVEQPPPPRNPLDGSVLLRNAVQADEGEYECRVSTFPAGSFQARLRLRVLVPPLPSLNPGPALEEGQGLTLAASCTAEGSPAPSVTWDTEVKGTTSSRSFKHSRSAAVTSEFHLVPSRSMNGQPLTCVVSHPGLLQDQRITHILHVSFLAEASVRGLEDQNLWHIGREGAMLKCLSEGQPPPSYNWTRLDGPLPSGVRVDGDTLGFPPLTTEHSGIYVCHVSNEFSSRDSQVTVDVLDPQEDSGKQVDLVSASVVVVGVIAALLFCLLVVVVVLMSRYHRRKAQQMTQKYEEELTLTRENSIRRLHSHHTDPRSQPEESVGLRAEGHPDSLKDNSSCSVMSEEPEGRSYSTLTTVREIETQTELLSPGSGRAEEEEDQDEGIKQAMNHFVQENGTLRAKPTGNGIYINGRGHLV
Protocol: In this assay, the relative amount of antibodies remaining on the cell surface after co-incubation at 37° C. for a certain period of time was detected by FACS to reflect the endocytosis efficiency. The procedures are briefly described as follows: T-47D cells (human ductal breast cancer cells, derived from the Cell Bank of Chinese Academy of Sciences, Cat. No. TCHu 87); the antibodies were adjusted to 10 μg/mL and co-incubated with the cells on ice for 1 h; the cells were washed 3 times with pre-cooled PBS, and then placed at 37° C. and incubated for 0 h, 2 h and 4 h; 0.2% N₃Na was added to stop the endocytosis reaction; the cells were washed with PBS thrice, followed by the addition of the PE-labeled anti-human Fc secondary antibody (Invitrogen 12-4998-82); the cells were incubated at 4° C. for 30 min; the red fluorescence signal was detected on a flow cytometer.

binding result [1]: no binding (tested: 2000 ng/mL)
binding result [2]: no binding (tested: 2000 ng/mL)
MFI (0 h) [3]: 105000 MFI
B1: antibody 1G8 (antibody, human IgG1, kappa, V domains shown)
VH: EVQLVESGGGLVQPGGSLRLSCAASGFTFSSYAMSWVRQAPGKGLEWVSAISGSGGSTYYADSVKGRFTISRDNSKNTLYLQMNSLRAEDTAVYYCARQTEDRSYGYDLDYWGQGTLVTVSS
VL: DIQMTQSPSSLSASVGDRVTITCRASQGISSYLAWYQQKPGKAPKLLIYAASSLQSGVPSRFSGSGSGTDFTLTISSLQPEDFATYYCQQHYTTPPTFGQGTKVEIKR
notes: intact antibody
